Where a chain is given by its changes, count along the chain named.

The source of these data is patent EP4763862A1 (Beijing Tide Pharmaceutical Co., Ltd., dated 2026).

The labels stand for the following.
T1: mouse B7-H3 on CHO-mouse B7-H3 cells (mouse, UniProt Q8VE98 29-316)
T1 construct: whole, on cells; also called CHO-S-mouse-B7-H3; murine B7-H3
T1 sequence (looked up): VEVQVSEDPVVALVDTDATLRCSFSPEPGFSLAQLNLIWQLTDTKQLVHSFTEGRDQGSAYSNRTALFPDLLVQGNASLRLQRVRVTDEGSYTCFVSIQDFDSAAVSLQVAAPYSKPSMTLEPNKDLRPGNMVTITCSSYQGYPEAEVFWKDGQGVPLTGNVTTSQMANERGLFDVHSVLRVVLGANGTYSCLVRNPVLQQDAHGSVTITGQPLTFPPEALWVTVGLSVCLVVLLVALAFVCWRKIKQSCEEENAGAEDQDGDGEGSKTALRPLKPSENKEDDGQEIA

T2: B7-H3 on NCI-H446 cells (UniProt Q5ZPR3 29-534)
T2 construct: whole, on cells
T2 sequence (looked up): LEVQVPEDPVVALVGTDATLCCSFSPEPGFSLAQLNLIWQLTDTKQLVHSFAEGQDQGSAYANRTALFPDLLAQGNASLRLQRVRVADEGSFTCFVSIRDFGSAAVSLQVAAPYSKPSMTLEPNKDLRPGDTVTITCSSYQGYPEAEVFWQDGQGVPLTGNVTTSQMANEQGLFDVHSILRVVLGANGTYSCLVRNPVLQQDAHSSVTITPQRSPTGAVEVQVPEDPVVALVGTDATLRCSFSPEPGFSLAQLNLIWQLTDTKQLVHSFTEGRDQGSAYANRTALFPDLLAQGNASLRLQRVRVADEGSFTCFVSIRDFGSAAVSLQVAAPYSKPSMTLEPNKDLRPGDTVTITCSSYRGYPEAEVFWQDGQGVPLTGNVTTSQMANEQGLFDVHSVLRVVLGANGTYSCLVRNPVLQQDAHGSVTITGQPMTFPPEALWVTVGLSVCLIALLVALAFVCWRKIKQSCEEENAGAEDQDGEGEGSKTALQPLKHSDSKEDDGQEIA

B1: 48-B4-F4-E4 (antibody, human IgG1, kappa)
heavy: not shown
light: DVLMTQTPLSLPVSLGDQVSISCRASQSLANSYGKTYLSWYLHKPGQSPQLLIYGISNRFSGVPDRFSGSGSGTDFTLKISTIKPEDLGMYYCLHGTHQPLTFGAGTKLELKRTVAAPSVFIFPPSDEQLKSGTASVVCLLNNFYPREAKVQWKVDNALQSGNSQESVTEQDSKDSTYSLSSTLTLSKADYEKHKVYACEVTHQGLSSPVTKSFNRGEC
notes: also called CE4
B2: 16-D10-E1-E1 (antibody, human IgG1, kappa, V domains shown)
VH: EVQLQQSGPELVRPGVSVKISCKGSGYTFTDYAMHWVKQSHAKSLEWIGVINTYSGNTYYSQKFKGKATMTVDKSSSTAYMELARLTSEDSAIYYCARGAGYFPYWYFDVWGAGTTVTVSS
VL: DIQMIQSPSYLAASPGETITINCRASKSISKYLAWYQEKPGKTNKLLIYSGSTLQSGIPSRFSGSGSGTDFTLTISSLEPEDFAMYYCQQHYEYPYTFGGGTKLEIKR
B3: 28-B5-B6-C6 (antibody, human IgG1, kappa, V domains shown)
VH: EVKLQESGPGLVKPSQSLSLTCTVTGYSITSDYAWNWIRQFPGNILEWMGYISYSGSASYNPSLQSRISVTRDTSKNQFFLQLNSVTTEDTATYYCVRSLGRRWYFGFWGAGTTVTVSS
VL: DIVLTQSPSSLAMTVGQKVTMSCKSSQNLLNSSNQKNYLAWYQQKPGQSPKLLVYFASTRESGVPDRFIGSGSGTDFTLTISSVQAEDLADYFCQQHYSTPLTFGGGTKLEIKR
B4: 19-F1-E9-B11 (antibody, human IgG1, kappa, V domains shown)
VH: EVQLQQSGPSLVKPSQTLSLTCSVTGGSITSFYWNWIRKFPGNKLEYMGYISSSGSTYYNPSLKSRISITRDTSKNQSYLQLNSVTAEDTATYYCARGGVHYGFGDYWGQGTSVTVSS
VL: DIVMTQSAPSVPVTPGESVSISCRSSKSLLHSNGNTYLYWFLQRPGQSPQLLIYRMSNLASGVPDRFSGSGSGTAFTLRISRVEAEDVGVYYCMQHLEYPLTFGAGTKLELKR
notes: also called CB11
B5: 9-F1-D9-F10 (antibody, human IgG1, kappa, V domains shown)
VH: EVQLVESGGGLVQPGGSLRVSCATSGFTFSDYYMSWVRQPPGKALEWLGFIRNKINGYTTEYSASVKGRFTISRDNSQSILYLQMNTLRAEDSATYYCTRDSSQRPFAYWGQGTLVTVSA
VL: DIVMTQSPSSLSVSAGEKVTMTCKSSQSLLNSRSQKNFLAWYQQKPGQPPKLLIYGASTRESGVPDRFTGSGSGTDFTLTISNVQAEDLAVYYCQNDLTYPLTFGAGTKLELKR
B6: 29-A9-G8-F6 (antibody, human IgG1, kappa, V domains shown)
VH: EVQLQQSGPELVRPGVSVKISCKGSGYTFTDYSMHWVKQSHAKSLEWIGVINTSSGNTYYNLKFKGKATMTVDKSSSTAYMELARLTSEDSAIYYCSKYYGSSFHWYFDVWGAGTTVTVSS
VL: DIVMTQSPVIMSASPGEKVTMTCSASSSVSYMHWYQQKSSTSPKLWIYDTSKLASGVPGRFSGTGSGKSHSLTISSMEAEDVATYYCFQGSGYPLTFGSGTKLEIKR
B7: 9-A2-G3-H11 (antibody, human IgG1, kappa, V domains shown)
VH: EVQLQQSGPELVRPGESVKISCKGSGYTFTDYAIHWVKQSHAKSLEWIGVISTYYDNTYYNQKFKGRATMTVDKSSSTAYMELARLTSEDSAIYYCARGYGSSFNWYFDVWGAGTTVTVSS
VL: DIVMTQSPSSLAVSAGEKVTMSCKSSQSLLNSRTRKNYLAWYQQKPGQSPKLLIYWASTRESGVPDRFTGSGSGTDFTLTITSVQAEDLAVYYCKQSYNLYTFGGGTKLEIKR
B8: cAb1-uIgG1K (antibody)
heavy: not shown
light: B1 light
notes: Parental chimeric antibody of the cAb1 series; also called cAb1-ulgG1K
B9: 28-B1-E8-C11 (antibody, human IgG1, kappa, V domains shown)
VH: EVKLVESGAVLVKPGASVKISCKASGYTLSDFNMDWVKQSQGKSLEWVGDINPNYDTITYNQKFRGKATLTVDRSSNTAYMELRSLTSEDSAVYYCARGELGRYFYVWGAGTTVTVSS
VL: DIQLTQPPASLSASVGETVTITCRASENVYSYLAWYRQKQGRSPQLLVYNAKTLPEGVPSRFSGSGSGTQFSLKINSLQTEDLGDYYCQHHYGTPWTFGGGTKLEIKR
notes: parent of the cAb2 humanized antibodies; also called CC11
B10: cAb2-z0-p9 (antibody, human IgG1, kappa, V domains shown)
VH: B9 VH
VL: DIQLTQPPSSLSASVGDRVTITCRASENVYSYLAWYQQKPGRSPQLLVYNAKTLQEGVPSRFSGSGSGTQFTLTISSLQPEDVADYYCQHHYGTPWTFGGGTKVEIKR
notes: Humanized from 28-B1-E8-C11; Human IgG1 / kappa
B11: cAb2-z1-p9 (antibody, human IgG1, kappa, V domains shown)
VH: B9 VH
VL: B10 VL with Q55P, V83F, Q89S
notes: Humanized from 28-B1-E8-C11; Human IgG1 / kappa; also called cAb2-zl-p9
B12: cAb2-z2-p6 (antibody, human IgG1, kappa, V domains shown)
VH: QVQLVESGAVVKKPGASVKVSCKASGYTLSDFNMDWVRQAPGKSLEWMGDINPNYDTITYNQKFRGRVTLTVDRSINTAYMELSRLRSDDTAVYYCARGELGRYFYVWGAGTMVTVSS
VL: B10 VL with V83F
notes: as for B10
B13: cAb2-z4-p6 (antibody, human IgG1, kappa, V domains shown)
VH: B12 VH
VL: B10 VL
notes: as for B10
B14: cAb2-z3-p6 (antibody, human IgG1, kappa, V domains shown)
VH: B12 VH
VL: B10 VL with S10F, Q70E, V83F
notes: as for B10
B15: cAb2-z5-p6 (antibody, human IgG1, kappa, V domains shown)
VH: B12 VH
VL: B10 VL with Q55P, V83F, Q89S
notes: as for B10

One experiment deals with T1, mouse B7-H3 on CHO-mouse B7-H3 cells. Put plainly: flow cytometry on CHO-mouse B7-H3 cells, antibody 10 µg/ml. On the technique in general: Flow cytometry measures light scatter and fluorescence of single cells or particles in a stream.
For B1, the binding result is “binds”.

Consider B2, for which the binding result is “binds”.

Turning to B3, the binding result is given as “binds”.

Take B4: the binding result is recorded as “binds”.

For the molecule B5, the binding result was “binds”.

As to B6, the binding result is “binds”.

On to B7, for which the binding result is reported as “binds”.

Another experiment addresses T2, B7-H3 on NCI-H446 cells. Kind of experiment: flow cytometry on NCI-H446 cells, goat anti-human Fc secondary.
For B8, a half-maximal effect (EC50) was put at 3.45 nM.

Regarding B9, the concentration for a half-maximal effect (EC50) was found to be 4.45 nM.

Turning to B10, the EC50 came out at 1.15 nM.

In turn, B11 came in with an EC50 of 2.22 nM.

Regarding B12, the EC50 was determined as 1.36 nM.

Consider B13, for which the half-maximal effective concentration (EC50) is 0.552 nM.

Molecule B14 displayed an EC50 of 1.06 nM.

In the case of B15, the EC50 stood at 3.92 nM.

The target of a further experiment is T3, B7-H3 Cyno-His (cynomolgus monkey).
T3 construct: also called cynomolgus monkey B7-H3
Kind of experiment: SPR, Biacore 8K, antibody captured by anti-human IgG Fc on CM5, B7-H3 Cyno-His as analyte, 1:1 model. Background: SPR reads the build-up and loss of mass on a sensor chip optically.
B8 yielded a Kd of 3.35 nM, a koff of 5.47e-05 s⁻¹ and a kon of 16300 M⁻¹ s⁻¹.

For orientation: EC50 means the concentration at which the effect is half-maximal. As a reminder, the Kd is the free concentration of one partner at which half of the binding sites on the other are occupied at equilibrium, for simple one-to-one binding. Low readings indicate higher affinity, high ones lower affinity. Broadly, the koff is a measure of how fast the partners let go of each other. Low values mean a long-lived complex, high ones a short-lived complex. A word on the kon: it is the second-order rate constant of association. Lower therefore signals slower complex formation.
